Test results taken from patent US20250092426, “CAS ENDONUCLEASES AND RELATED METHODS” (Flagship Pioneering Innovations VII, LLC, published 2025).

Biological target: T1, CasEnd-16 (synthetic construct)
T1 chain: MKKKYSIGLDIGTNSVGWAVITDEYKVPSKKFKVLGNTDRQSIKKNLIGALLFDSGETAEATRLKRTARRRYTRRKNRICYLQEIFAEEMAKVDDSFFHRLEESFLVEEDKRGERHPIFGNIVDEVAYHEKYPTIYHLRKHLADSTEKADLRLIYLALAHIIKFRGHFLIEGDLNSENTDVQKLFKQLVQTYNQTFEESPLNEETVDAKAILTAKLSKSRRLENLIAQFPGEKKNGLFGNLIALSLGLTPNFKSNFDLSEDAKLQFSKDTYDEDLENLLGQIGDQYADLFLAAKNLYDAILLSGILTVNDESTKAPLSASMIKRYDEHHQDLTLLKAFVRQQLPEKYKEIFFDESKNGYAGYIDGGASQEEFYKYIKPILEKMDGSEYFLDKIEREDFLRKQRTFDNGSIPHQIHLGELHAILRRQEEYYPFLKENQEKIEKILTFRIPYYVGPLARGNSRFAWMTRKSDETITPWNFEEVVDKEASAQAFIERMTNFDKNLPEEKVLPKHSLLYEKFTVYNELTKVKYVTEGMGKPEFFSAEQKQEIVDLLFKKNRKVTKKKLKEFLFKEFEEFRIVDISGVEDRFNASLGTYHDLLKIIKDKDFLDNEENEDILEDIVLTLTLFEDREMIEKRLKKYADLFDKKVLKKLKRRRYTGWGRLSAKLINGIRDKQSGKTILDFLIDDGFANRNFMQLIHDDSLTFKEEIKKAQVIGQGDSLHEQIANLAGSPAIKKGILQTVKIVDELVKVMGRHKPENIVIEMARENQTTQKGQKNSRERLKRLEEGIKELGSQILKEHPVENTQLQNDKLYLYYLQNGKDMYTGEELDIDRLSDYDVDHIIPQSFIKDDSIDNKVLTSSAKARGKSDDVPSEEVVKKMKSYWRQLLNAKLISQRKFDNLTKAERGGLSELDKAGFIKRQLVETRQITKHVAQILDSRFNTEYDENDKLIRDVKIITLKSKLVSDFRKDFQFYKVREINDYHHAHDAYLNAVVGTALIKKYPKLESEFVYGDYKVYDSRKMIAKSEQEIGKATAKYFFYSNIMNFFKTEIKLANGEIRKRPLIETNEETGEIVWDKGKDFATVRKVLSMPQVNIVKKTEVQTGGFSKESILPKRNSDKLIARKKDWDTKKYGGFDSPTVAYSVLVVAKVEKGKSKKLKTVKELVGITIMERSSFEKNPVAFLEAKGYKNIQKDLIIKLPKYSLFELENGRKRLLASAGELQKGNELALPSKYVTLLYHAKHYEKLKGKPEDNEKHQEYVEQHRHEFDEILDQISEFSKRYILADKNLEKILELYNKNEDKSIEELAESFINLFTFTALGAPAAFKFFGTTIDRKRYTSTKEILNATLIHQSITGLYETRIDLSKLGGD
Experiment: cell_activity; +++; HEK293T; PAM not stated
In short: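 Editing activity was scored as the fraction of GFP+ cells on day 4 by flow cytometry. BFP-expressing HEK293T cells (250,000) received by nucleofection 200 ng plasmid for the RT-Cas fusion protein and 200 ng template RNA plasmid designed to convert BFP to GFP.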

B1: BFP-to-GFP template RNA ; BFP reporter protospacer (ssRNA ; dsDNA)
RNA: GCCGAAGCACUGCACGCCGUGUUUUAGAGCUAGAAAUAGCAAGUUAAAAUAAGGCUAGUCCGUUAUCAACUUGAAAAAGUGGCACCGAGUCGGUGCACCCUGACGUACGGCGUGCAGUGCUU
DNA 1: GCCGAAGCACTGCACGCCGT
DNA 2: ACGGCGTGCAGTGCTTCGGC
activity: ≥ 100 % of reference
